The target in assay [1] is retromer cargo-selective complex (CSC), trimer of VPS35, VPS29 and VPS26 (UniProt Q96QK1). Description: ITC. (Isothermal titration calorimetry measures the heat released or taken up as one component is titrated into another.)
The target is the same in assay [2]. Description: ITC. This is another data set of the same source.

Like-named read-outs stand apart in the source and are kept apart here.

The Kd is the equilibrium constant for the complex coming apart. A lower Kd goes with tighter binding. A word on the stoichiometry N: it is a count of units in the complex or per binding partner.

In assay [1], “FN fragment of FAM21 (356-600) as used in ITC (domain or fragment)” registered a Kd of 11.5 µM and a stoichiometry N of 0.32.
The matching figures for “R21 for ITC (FAM21 1309-1341, Trp, His6) (domain or fragment)”: 16.6 µM and 0.82.
In the case of “FC fragment of FAM21 (938-1341 without 1029-1047) as used in ITC (domain or fragment)”, in assay [1], the Kd worked out at 2.4 µM and the stoichiometry N worked out at 0.42.
For the substance “R20-21 for ITC (FAM21 1278-1341, Trp, His6) (domain or fragment)”, in assay [1], the Kd lay within 2.5 to 16.6 µM; the Kd of the second site (two-site model, one site fixed to 16.6 μM) was 3 µM; the stoichiometry N came out at 0.49. The substance also showed a Kd in assay [2] of 3.2 µM.
As to “R19-20 for ITC (FAM21 1250-1317, Trp, His6) (domain or fragment)”, in assay [1], the Kd is 6.8 µM and the stoichiometry N worked out at 0.39.

For the origin of these results see publication PMC3374753.
